Results published in US20110038894A1 (NATIONAL HEALTH RESEARCH INSTITUTES, published 2011).

The binders below were run against His-tag fused human HLA-A2 heavy chain (His-HLA-A2) with His-Tag fused human β2-microglobulin (His-β2) (human) (assay: MHC-peptide complex formation assay: refolding of His-HLA-A2, His-β2m and peptide, sandwich ELISA (W6/32 capture, anti-β2m detection), relative to positive control peptide).

With SLFSILLAL (also called TAL6 161-169) [TAL6 peptide No. 12 of Table 1, SLFSILLAL] as the binder, how does the “Relative binding (%)” value read?
Its value is 42.6%.

With LLMLLPAFV (also called TAL6 58-66) [TAL6 peptide No. 5 of Table 1, LLMLLPAFV] as the binder, how does the “Relative binding (%)” value read?
The value was 134%.

For MLLPAFVFI (also called TAL6 60-68) [TAL6 peptide No. 6 of Table 1, MLLPAFVFI], which “Relative binding (%)” value is on record?
Its value is 155%.

With HIVEWNVSL (also called TAL6 154-162) [TAL6 peptide No. 11 of Table 1, HIVEWNVSL] as the binder, how does the “Relative binding (%)” value read?
Its value is 91.1%.

MLSSVLAAL (also called TAL6 90-98) [TAL6 peptide No. 8 of Table 1, MLSSVLAAL] was tested. Which “Relative binding (%)” value did it give?
Its value is 163%.

For ALLCIAANI (also called TAL6 18-26) [TAL6 peptide No. 3 of Table 1, ALLCIAANI], which “Relative binding (%)” value is on record?
Its value is 53.6%.

Which “Relative binding (%)” value does the source give for SVLAALIGI (also called TAL6 93-101) [TAL6 peptide No. 9 of Table 1, SVLAALIGI] here?
Its value is 158%.

With SLVGLALLC (also called TAL6 13-21) [TAL6 peptide No. 2 of Table 1, SLVGLALLC] as the binder, how does the “Relative binding (%)” value read?
Its value is 126%.

With SILLALGGI (also called TAL6 164-172) [TAL6 peptide No. 13 of Table 1, SILLALGGI] as the binder, how does the “Relative binding (%)” value read?
The value was 51.8%.

How did the “Relative binding (%)” value turn out when CIGHSLVGL (also called TAL6 9-17) [TAL6 peptide No. 1 of Table 1, CIGHSLVGL] was run?
Its value is 93.3%.

VINGVLGGI (also called TAL6 181-189) [TAL6 peptide No. 16 of Table 1, VINGVLGGI] was tested. Which “Relative binding (%)” value did it give?
The value was 59.1%.

Which “Relative binding (%)” value does the source give for IVGGGLLML (also called TAL6 53-61) [TAL6 peptide No. 4 of Table 1, IVGGGLLML] here?
Its value is 43.4%.

How did the “Relative binding (%)” value turn out when CLIQVINGV (also called TAL6 177-185) [TAL6 peptide No. 15 of Table 1, CLIQVINGV] was run?
The value was 26.3%.

For GLAEGPLCL (also called TAL6 114-122) [TAL6 peptide No. 10 of Table 1, GLAEGPLCL], which “Relative binding (%)” value is on record?
Its value is 72.4%.

With AMLSSVLAA (also called TAL6 89-97) [TAL6 peptide No. 7 of Table 1, AMLSSVLAA] as the binder, how does the “Relative binding (%)” value read?
The value was 115%.

For ALGGIEFIL (also called TAL6 168-176) [TAL6 peptide No. 14 of Table 1, ALGGIEFIL], which “Relative binding (%)” value is on record?
Its value is 113%.
